Data from IntAct's records for PubMed 35512704.

B1: Speckle-type POZ protein (Homo sapiens), O43791 (parent)
chain: MSRVPSPPPPAEMSSGPVAESWCYTQIKVVKFSYMWTINNFSFCREEMGEVIKSSTFSSGANDKLKWCLRVNPKGLDEESKDYLSLYLLLVSCPKSEVRAKFKFSILNAKGEETKAMESQRAYRFVQGKDWGFKKFIRRDFLLDEANGLLPDDKLTLFCEVSVVQDSVNISGQNTMNMVKVPECRLADELGGLWENSRFTDCCLCVAGQEFQAHKAILAARSPVFSAMFEHEMEESKKNRVEINDVEPEVFKEMMCFIYTGKAPNLDKMADDLLAAADKYALERLKVMCEDALCSNLSVENAAEILILADLHSADQLKTQAVDFINYHASDVLETSGWKSMVVSHPHLVAEAYRSLASAQCPFLGPPRKRLKQS

Variants of: B1
Conditions: with fgfr4_human FGFR4, P22455

| effect of a mutation on the interaction | Variant |
| --- | --- |
| with no effect | MSRVPSPPPPAEMSSGPVAESWCYTQIKVVKFSYMWTINNFSFCREEMGEVIKSSTFSSGANDKLKWCLRVNPKGLDEESKDYLSLYLLLVSCPKSEVRAKFKFSILNAKGEETKAMESQRAYRFVQGKDWGLKKFIRRDFLLDEANGLLPDDKLTLFCEVSVVQDSVNISGQNTMNMVKVPECRLADELGGLWENSRFTDCCLCVAGQEFQAHKAILAARSPVFSAMFEHEMEESKKNRVEINDVEPEVFKEMMCFIYTGKAPNLDKMADDLLAAADKYALERLKVMCEDALCSNLSVENAAEILILADLHSADQLKTQAVDFINYHASDVLETSGWKSMVVSHPHLVAEAYRSLASAQCPFLGPPRKRLKQS [F133L] |

Variants of: B1
Conditions: with fumh_human FH

| effect of a mutation on the interaction | Variant |
| --- | --- |
| with no effect | MSRVPSPPPPAEMSSGPVAESWCYTQIKVVKFSYMWTINNFSFCREEMGEVIKSSTFSSGANDKLKWCLRVNPKGLDEESKDYLSLYLLLVSCPKSEVRAKFKFSILNAKGEETKAMESQRAYRFVQGKDWGLKKFIRRDFLLDEANGLLPDDKLTLFCEVSVVQDSVNISGQNTMNMVKVPECRLADELGGLWENSRFTDCCLCVAGQEFQAHKAILAARSPVFSAMFEHEMEESKKNRVEINDVEPEVFKEMMCFIYTGKAPNLDKMADDLLAAADKYALERLKVMCEDALCSNLSVENAAEILILADLHSADQLKTQAVDFINYHASDVLETSGWKSMVVSHPHLVAEAYRSLASAQCPFLGPPRKRLKQS [F133L] |

Variants of: B1
Conditions: with fzr1_human FZR1, Q9UM11
fzr1_human FZR1, Q9UM11, sequence (Q9UM11 whole entry): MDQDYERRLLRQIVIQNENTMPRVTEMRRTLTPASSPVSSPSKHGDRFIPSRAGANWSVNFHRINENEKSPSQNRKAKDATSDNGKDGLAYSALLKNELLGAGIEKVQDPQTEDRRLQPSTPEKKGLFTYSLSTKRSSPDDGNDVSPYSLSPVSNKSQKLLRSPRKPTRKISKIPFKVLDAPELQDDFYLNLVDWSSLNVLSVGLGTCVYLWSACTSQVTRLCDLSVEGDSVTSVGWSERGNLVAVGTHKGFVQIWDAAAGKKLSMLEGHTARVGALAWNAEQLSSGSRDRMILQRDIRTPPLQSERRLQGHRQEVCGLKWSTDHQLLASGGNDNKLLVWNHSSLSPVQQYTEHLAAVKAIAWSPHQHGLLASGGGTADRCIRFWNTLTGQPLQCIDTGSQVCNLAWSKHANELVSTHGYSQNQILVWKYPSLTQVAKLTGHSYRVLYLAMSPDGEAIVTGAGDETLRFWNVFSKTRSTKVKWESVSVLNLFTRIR

| effect of a mutation on the interaction | Variant |
| --- | --- |
| with no effect | MSRVPSPPPPAEMSSGPVAESWCYTQIKVVKFSYMWTINNFSFCREEMGEVIKSSTFSSGANDKLKWCLRVNPKGLDEESKDYLSLYLLLVSCPKSEVRAKFKFSILNAKGEETKAMESQRAYRFVQGKDWGLKKFIRRDFLLDEANGLLPDDKLTLFCEVSVVQDSVNISGQNTMNMVKVPECRLADELGGLWENSRFTDCCLCVAGQEFQAHKAILAARSPVFSAMFEHEMEESKKNRVEINDVEPEVFKEMMCFIYTGKAPNLDKMADDLLAAADKYALERLKVMCEDALCSNLSVENAAEILILADLHSADQLKTQAVDFINYHASDVLETSGWKSMVVSHPHLVAEAYRSLASAQCPFLGPPRKRLKQS [F133L] |

Variants of: B1
Conditions: with gbra6_human GABRA6, Q16445
gbra6_human GABRA6, Q16445, sequence (Q16445 whole entry): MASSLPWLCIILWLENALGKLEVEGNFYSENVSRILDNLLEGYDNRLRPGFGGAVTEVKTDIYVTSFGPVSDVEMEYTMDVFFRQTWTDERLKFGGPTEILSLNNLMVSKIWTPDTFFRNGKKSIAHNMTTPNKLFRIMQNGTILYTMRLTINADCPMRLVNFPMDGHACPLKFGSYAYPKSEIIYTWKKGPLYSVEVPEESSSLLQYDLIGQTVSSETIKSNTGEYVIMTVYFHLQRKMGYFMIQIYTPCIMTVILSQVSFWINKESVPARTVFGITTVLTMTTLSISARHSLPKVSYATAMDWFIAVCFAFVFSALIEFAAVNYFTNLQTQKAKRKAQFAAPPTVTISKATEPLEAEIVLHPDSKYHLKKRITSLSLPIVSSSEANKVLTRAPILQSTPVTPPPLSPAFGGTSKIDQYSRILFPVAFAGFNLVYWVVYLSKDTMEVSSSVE

| effect of a mutation on the interaction | Variant |
| --- | --- |
| with no effect | MSRVPSPPPPAEMSSGPVAESWCYTQIKVVKFSYMWTINNFSFCREEMGEVIKSSTFSSGANDKLKWCLRVNPKGLDEESKDYLSLYLLLVSCPKSEVRAKFKFSILNAKGEETKAMESQRAYRFVQGKDWGLKKFIRRDFLLDEANGLLPDDKLTLFCEVSVVQDSVNISGQNTMNMVKVPECRLADELGGLWENSRFTDCCLCVAGQEFQAHKAILAARSPVFSAMFEHEMEESKKNRVEINDVEPEVFKEMMCFIYTGKAPNLDKMADDLLAAADKYALERLKVMCEDALCSNLSVENAAEILILADLHSADQLKTQAVDFINYHASDVLETSGWKSMVVSHPHLVAEAYRSLASAQCPFLGPPRKRLKQS [F133L] |

Variants of: B1
Conditions: with gata1_human GATA1, P15976
gata1_human GATA1, P15976, sequence (P15976 whole entry): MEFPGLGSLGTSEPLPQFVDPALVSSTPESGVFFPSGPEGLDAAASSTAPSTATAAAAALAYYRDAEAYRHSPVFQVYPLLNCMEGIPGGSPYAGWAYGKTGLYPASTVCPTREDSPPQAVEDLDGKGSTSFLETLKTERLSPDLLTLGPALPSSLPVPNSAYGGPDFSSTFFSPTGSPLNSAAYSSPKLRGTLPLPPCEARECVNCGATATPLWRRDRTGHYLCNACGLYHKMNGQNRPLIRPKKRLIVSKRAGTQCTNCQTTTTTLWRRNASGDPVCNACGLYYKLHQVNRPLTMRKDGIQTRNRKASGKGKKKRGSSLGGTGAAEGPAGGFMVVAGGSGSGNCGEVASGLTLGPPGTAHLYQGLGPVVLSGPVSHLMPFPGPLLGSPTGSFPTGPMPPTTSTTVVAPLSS

| effect of a mutation on the interaction | Variant |
| --- | --- |
| with no effect | MSRVPSPPPPAEMSSGPVAESWCYTQIKVVKFSYMWTINNFSFCREEMGEVIKSSTFSSGANDKLKWCLRVNPKGLDEESKDYLSLYLLLVSCPKSEVRAKFKFSILNAKGEETKAMESQRAYRFVQGKDWGLKKFIRRDFLLDEANGLLPDDKLTLFCEVSVVQDSVNISGQNTMNMVKVPECRLADELGGLWENSRFTDCCLCVAGQEFQAHKAILAARSPVFSAMFEHEMEESKKNRVEINDVEPEVFKEMMCFIYTGKAPNLDKMADDLLAAADKYALERLKVMCEDALCSNLSVENAAEILILADLHSADQLKTQAVDFINYHASDVLETSGWKSMVVSHPHLVAEAYRSLASAQCPFLGPPRKRLKQS [F133L] |

Variants of: B1
Conditions: with p66b_human GATAD2B

| effect of a mutation on the interaction | Variant |
| --- | --- |
| with no effect | MSRVPSPPPPAEMSSGPVAESWCYTQIKVVKFSYMWTINNFSFCREEMGEVIKSSTFSSGANDKLKWCLRVNPKGLDEESKDYLSLYLLLVSCPKSEVRAKFKFSILNAKGEETKAMESQRAYRFVQGKDWGLKKFIRRDFLLDEANGLLPDDKLTLFCEVSVVQDSVNISGQNTMNMVKVPECRLADELGGLWENSRFTDCCLCVAGQEFQAHKAILAARSPVFSAMFEHEMEESKKNRVEINDVEPEVFKEMMCFIYTGKAPNLDKMADDLLAAADKYALERLKVMCEDALCSNLSVENAAEILILADLHSADQLKTQAVDFINYHASDVLETSGWKSMVVSHPHLVAEAYRSLASAQCPFLGPPRKRLKQS [F133L] |

Variants of: B1
Conditions: with gna11_human GNA11, P29992
gna11_human GNA11, P29992, sequence (P29992 whole entry): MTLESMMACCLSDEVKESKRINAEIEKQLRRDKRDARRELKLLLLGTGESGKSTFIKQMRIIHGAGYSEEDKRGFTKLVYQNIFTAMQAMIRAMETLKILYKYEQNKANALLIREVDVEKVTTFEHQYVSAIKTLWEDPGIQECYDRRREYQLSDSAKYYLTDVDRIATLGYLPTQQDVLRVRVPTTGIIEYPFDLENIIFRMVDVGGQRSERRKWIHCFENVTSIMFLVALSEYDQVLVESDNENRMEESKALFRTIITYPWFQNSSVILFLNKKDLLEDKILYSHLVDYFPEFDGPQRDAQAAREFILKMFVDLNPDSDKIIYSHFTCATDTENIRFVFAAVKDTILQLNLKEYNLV

| effect of a mutation on the interaction | Variant |
| --- | --- |
| with no effect | MSRVPSPPPPAEMSSGPVAESWCYTQIKVVKFSYMWTINNFSFCREEMGEVIKSSTFSSGANDKLKWCLRVNPKGLDEESKDYLSLYLLLVSCPKSEVRAKFKFSILNAKGEETKAMESQRAYRFVQGKDWGLKKFIRRDFLLDEANGLLPDDKLTLFCEVSVVQDSVNISGQNTMNMVKVPECRLADELGGLWENSRFTDCCLCVAGQEFQAHKAILAARSPVFSAMFEHEMEESKKNRVEINDVEPEVFKEMMCFIYTGKAPNLDKMADDLLAAADKYALERLKVMCEDALCSNLSVENAAEILILADLHSADQLKTQAVDFINYHASDVLETSGWKSMVVSHPHLVAEAYRSLASAQCPFLGPPRKRLKQS [F133L] |

Variants of: B1
Conditions: with gna13_human GNA13, Q14344
gna13_human GNA13, Q14344, sequence (Q14344 whole entry): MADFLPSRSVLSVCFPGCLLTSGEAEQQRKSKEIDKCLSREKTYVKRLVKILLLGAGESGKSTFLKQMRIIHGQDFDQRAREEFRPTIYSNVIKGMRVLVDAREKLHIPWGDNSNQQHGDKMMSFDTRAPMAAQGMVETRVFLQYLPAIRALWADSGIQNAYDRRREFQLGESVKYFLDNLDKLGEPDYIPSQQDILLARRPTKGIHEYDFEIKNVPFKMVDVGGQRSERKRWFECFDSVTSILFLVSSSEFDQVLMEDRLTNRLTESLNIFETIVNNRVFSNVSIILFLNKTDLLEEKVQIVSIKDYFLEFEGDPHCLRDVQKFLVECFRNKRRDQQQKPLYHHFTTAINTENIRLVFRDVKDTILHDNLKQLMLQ

| effect of a mutation on the interaction | Variant |
| --- | --- |
| with no effect | MSRVPSPPPPAEMSSGPVAESWCYTQIKVVKFSYMWTINNFSFCREEMGEVIKSSTFSSGANDKLKWCLRVNPKGLDEESKDYLSLYLLLVSCPKSEVRAKFKFSILNAKGEETKAMESQRAYRFVQGKDWGLKKFIRRDFLLDEANGLLPDDKLTLFCEVSVVQDSVNISGQNTMNMVKVPECRLADELGGLWENSRFTDCCLCVAGQEFQAHKAILAARSPVFSAMFEHEMEESKKNRVEINDVEPEVFKEMMCFIYTGKAPNLDKMADDLLAAADKYALERLKVMCEDALCSNLSVENAAEILILADLHSADQLKTQAVDFINYHASDVLETSGWKSMVVSHPHLVAEAYRSLASAQCPFLGPPRKRLKQS [F133L] |

Variants of: B1
Conditions: with gnaq_human GNAQ

| effect of a mutation on the interaction | Variant |
| --- | --- |
| with no effect | MSRVPSPPPPAEMSSGPVAESWCYTQIKVVKFSYMWTINNFSFCREEMGEVIKSSTFSSGANDKLKWCLRVNPKGLDEESKDYLSLYLLLVSCPKSEVRAKFKFSILNAKGEETKAMESQRAYRFVQGKDWGLKKFIRRDFLLDEANGLLPDDKLTLFCEVSVVQDSVNISGQNTMNMVKVPECRLADELGGLWENSRFTDCCLCVAGQEFQAHKAILAARSPVFSAMFEHEMEESKKNRVEINDVEPEVFKEMMCFIYTGKAPNLDKMADDLLAAADKYALERLKVMCEDALCSNLSVENAAEILILADLHSADQLKTQAVDFINYHASDVLETSGWKSMVVSHPHLVAEAYRSLASAQCPFLGPPRKRLKQS [F133L] |

Variants of: B1
Conditions: with grm1_human GRM1, Q13255
grm1_human GRM1, Q13255, sequence (Q13255 whole entry, looked up): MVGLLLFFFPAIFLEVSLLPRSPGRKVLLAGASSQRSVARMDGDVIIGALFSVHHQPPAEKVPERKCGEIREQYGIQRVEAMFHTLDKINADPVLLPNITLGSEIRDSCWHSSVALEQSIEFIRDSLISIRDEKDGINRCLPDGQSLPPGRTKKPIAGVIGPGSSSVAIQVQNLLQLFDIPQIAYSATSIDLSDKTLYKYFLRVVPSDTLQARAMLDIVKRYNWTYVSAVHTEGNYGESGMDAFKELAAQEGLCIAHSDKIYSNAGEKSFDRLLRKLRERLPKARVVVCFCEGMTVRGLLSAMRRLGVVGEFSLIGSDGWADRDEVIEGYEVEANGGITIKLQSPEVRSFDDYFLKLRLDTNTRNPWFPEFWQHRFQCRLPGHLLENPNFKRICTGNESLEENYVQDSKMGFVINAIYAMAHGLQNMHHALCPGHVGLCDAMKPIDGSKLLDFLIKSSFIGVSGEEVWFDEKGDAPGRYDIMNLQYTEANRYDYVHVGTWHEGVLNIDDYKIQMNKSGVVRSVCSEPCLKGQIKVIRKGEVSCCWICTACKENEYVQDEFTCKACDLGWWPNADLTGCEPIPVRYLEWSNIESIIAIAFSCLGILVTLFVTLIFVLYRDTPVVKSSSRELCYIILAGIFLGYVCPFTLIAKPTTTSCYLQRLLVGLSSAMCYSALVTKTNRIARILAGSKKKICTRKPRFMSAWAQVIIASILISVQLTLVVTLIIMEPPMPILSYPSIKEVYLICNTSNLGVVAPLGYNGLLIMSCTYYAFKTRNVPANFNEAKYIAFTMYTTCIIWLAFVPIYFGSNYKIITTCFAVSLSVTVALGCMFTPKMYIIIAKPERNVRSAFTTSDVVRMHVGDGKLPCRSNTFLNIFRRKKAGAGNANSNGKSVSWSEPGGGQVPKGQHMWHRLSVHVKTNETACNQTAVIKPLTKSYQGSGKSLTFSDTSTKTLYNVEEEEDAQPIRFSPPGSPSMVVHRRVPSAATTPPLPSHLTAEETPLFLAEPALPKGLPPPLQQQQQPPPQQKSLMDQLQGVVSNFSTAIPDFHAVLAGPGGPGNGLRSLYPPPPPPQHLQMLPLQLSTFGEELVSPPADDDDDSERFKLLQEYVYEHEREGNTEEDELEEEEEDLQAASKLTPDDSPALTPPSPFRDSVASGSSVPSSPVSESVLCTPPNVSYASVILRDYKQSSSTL

| effect of a mutation on the interaction | Variant |
| --- | --- |
| with no effect | MSRVPSPPPPAEMSSGPVAESWCYTQIKVVKFSYMWTINNFSFCREEMGEVIKSSTFSSGANDKLKWCLRVNPKGLDEESKDYLSLYLLLVSCPKSEVRAKFKFSILNAKGEETKAMESQRAYRFVQGKDWGLKKFIRRDFLLDEANGLLPDDKLTLFCEVSVVQDSVNISGQNTMNMVKVPECRLADELGGLWENSRFTDCCLCVAGQEFQAHKAILAARSPVFSAMFEHEMEESKKNRVEINDVEPEVFKEMMCFIYTGKAPNLDKMADDLLAAADKYALERLKVMCEDALCSNLSVENAAEILILADLHSADQLKTQAVDFINYHASDVLETSGWKSMVVSHPHLVAEAYRSLASAQCPFLGPPRKRLKQS [F133L] |

Variants of: B1
Conditions: with grm3_human GRM3, Q14832
grm3_human GRM3, Q14832, sequence (Q14832 whole entry, looked up): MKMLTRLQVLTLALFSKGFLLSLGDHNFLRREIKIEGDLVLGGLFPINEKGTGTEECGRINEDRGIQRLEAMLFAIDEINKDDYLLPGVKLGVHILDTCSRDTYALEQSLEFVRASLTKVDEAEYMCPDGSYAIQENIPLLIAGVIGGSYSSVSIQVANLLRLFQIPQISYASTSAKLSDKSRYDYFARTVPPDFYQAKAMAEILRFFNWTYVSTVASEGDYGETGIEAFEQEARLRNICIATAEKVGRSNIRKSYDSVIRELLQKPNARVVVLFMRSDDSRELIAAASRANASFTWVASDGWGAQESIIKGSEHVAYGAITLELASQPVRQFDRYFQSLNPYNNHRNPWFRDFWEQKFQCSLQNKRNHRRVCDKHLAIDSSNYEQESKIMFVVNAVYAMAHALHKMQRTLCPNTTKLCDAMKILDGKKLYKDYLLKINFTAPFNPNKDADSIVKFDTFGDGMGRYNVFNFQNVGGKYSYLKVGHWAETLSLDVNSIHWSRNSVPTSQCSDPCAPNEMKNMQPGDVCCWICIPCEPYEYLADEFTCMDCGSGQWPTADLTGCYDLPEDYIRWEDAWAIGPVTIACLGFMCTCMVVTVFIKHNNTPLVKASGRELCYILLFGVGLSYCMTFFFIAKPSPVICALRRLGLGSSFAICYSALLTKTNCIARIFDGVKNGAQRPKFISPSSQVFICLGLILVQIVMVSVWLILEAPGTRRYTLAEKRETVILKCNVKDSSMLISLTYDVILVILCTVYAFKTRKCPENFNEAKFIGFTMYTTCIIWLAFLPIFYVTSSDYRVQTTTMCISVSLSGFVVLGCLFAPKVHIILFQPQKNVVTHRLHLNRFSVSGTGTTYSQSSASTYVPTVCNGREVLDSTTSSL

| effect of a mutation on the interaction | Variant |
| --- | --- |
| with no effect | MSRVPSPPPPAEMSSGPVAESWCYTQIKVVKFSYMWTINNFSFCREEMGEVIKSSTFSSGANDKLKWCLRVNPKGLDEESKDYLSLYLLLVSCPKSEVRAKFKFSILNAKGEETKAMESQRAYRFVQGKDWGLKKFIRRDFLLDEANGLLPDDKLTLFCEVSVVQDSVNISGQNTMNMVKVPECRLADELGGLWENSRFTDCCLCVAGQEFQAHKAILAARSPVFSAMFEHEMEESKKNRVEINDVEPEVFKEMMCFIYTGKAPNLDKMADDLLAAADKYALERLKVMCEDALCSNLSVENAAEILILADLHSADQLKTQAVDFINYHASDVLETSGWKSMVVSHPHLVAEAYRSLASAQCPFLGPPRKRLKQS [F133L] |

Variants of: B1
Conditions: with gsk3b_human GSK3B

| effect of a mutation on the interaction | Variant |
| --- | --- |
| with no effect | MSRVPSPPPPAEMSSGPVAESWCYTQIKVVKFSYMWTINNFSFCREEMGEVIKSSTFSSGANDKLKWCLRVNPKGLDEESKDYLSLYLLLVSCPKSEVRAKFKFSILNAKGEETKAMESQRAYRFVQGKDWGLKKFIRRDFLLDEANGLLPDDKLTLFCEVSVVQDSVNISGQNTMNMVKVPECRLADELGGLWENSRFTDCCLCVAGQEFQAHKAILAARSPVFSAMFEHEMEESKKNRVEINDVEPEVFKEMMCFIYTGKAPNLDKMADDLLAAADKYALERLKVMCEDALCSNLSVENAAEILILADLHSADQLKTQAVDFINYHASDVLETSGWKSMVVSHPHLVAEAYRSLASAQCPFLGPPRKRLKQS [F133L] |

Variants of: B1
Conditions: with gtpb4_human GTPBP4, Q9BZE4

| effect of a mutation on the interaction | Variant |
| --- | --- |
| with no effect | MSRVPSPPPPAEMSSGPVAESWCYTQIKVVKFSYMWTINNFSFCREEMGEVIKSSTFSSGANDKLKWCLRVNPKGLDEESKDYLSLYLLLVSCPKSEVRAKFKFSILNAKGEETKAMESQRAYRFVQGKDWGLKKFIRRDFLLDEANGLLPDDKLTLFCEVSVVQDSVNISGQNTMNMVKVPECRLADELGGLWENSRFTDCCLCVAGQEFQAHKAILAARSPVFSAMFEHEMEESKKNRVEINDVEPEVFKEMMCFIYTGKAPNLDKMADDLLAAADKYALERLKVMCEDALCSNLSVENAAEILILADLHSADQLKTQAVDFINYHASDVLETSGWKSMVVSHPHLVAEAYRSLASAQCPFLGPPRKRLKQS [F133L] |

Variants of: B1
Conditions: with h33_human H3-3A

| effect of a mutation on the interaction | Variant |
| --- | --- |
| with no effect | MSRVPSPPPPAEMSSGPVAESWCYTQIKVVKFSYMWTINNFSFCREEMGEVIKSSTFSSGANDKLKWCLRVNPKGLDEESKDYLSLYLLLVSCPKSEVRAKFKFSILNAKGEETKAMESQRAYRFVQGKDWGLKKFIRRDFLLDEANGLLPDDKLTLFCEVSVVQDSVNISGQNTMNMVKVPECRLADELGGLWENSRFTDCCLCVAGQEFQAHKAILAARSPVFSAMFEHEMEESKKNRVEINDVEPEVFKEMMCFIYTGKAPNLDKMADDLLAAADKYALERLKVMCEDALCSNLSVENAAEILILADLHSADQLKTQAVDFINYHASDVLETSGWKSMVVSHPHLVAEAYRSLASAQCPFLGPPRKRLKQS [F133L] |

Variants of: B1
Conditions: with hdac1_human HDAC1, Q13547
hdac1_human HDAC1, Q13547, sequence (Q13547 whole entry): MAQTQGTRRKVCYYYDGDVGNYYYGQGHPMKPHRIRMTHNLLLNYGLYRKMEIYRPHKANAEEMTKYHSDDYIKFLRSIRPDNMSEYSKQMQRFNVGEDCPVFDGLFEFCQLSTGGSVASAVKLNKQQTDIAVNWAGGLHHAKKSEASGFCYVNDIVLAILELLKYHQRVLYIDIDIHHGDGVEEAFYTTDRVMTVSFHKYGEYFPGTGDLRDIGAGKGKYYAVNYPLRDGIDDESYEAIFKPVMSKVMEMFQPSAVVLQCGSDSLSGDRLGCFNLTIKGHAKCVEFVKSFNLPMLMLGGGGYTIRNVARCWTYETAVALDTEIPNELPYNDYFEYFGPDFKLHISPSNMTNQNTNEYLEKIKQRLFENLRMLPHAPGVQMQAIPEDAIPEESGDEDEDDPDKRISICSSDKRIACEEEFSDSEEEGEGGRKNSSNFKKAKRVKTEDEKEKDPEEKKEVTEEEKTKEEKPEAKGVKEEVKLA

| effect of a mutation on the interaction | Variant |
| --- | --- |
| with no effect | MSRVPSPPPPAEMSSGPVAESWCYTQIKVVKFSYMWTINNFSFCREEMGEVIKSSTFSSGANDKLKWCLRVNPKGLDEESKDYLSLYLLLVSCPKSEVRAKFKFSILNAKGEETKAMESQRAYRFVQGKDWGLKKFIRRDFLLDEANGLLPDDKLTLFCEVSVVQDSVNISGQNTMNMVKVPECRLADELGGLWENSRFTDCCLCVAGQEFQAHKAILAARSPVFSAMFEHEMEESKKNRVEINDVEPEVFKEMMCFIYTGKAPNLDKMADDLLAAADKYALERLKVMCEDALCSNLSVENAAEILILADLHSADQLKTQAVDFINYHASDVLETSGWKSMVVSHPHLVAEAYRSLASAQCPFLGPPRKRLKQS [F133L] |
